According to article PMC6405930, “Conservation of the Amyloid Interactome Across Diverse Fibrillar Structures” (Scientific Reports, 2019):

Assays:
Test in all cases: Fibril incubation with CSF, quantitative MS/MS of bound proteins
[1] = target: T1, glucagon fibrils (Homo sapiens, UniProt P01275); format: binding; conditions: 4:1 w/w CSF protein:fibril
T1 construct: fibrils of the peptide hormone glucagon
Experimental: (§1) Plasma and CSF solutions were centrifuged (40,000 g, 20 min) to remove any aggregates. The protein concentration was determined using 280 nm absorbance assuming 1 Abs = 1 mg/mL. […] Control samples (without fibril material) were prepared similarly. All samples were incubated at room temperature for one hour under gentle agitation. Fibrils and fibril-bound proteins were pelleted by centrifugation at 17,000 g for 30 minutes. The supernatant (175 μL) was removed and the aggregate was re-suspended in 175 μL PBS and pelleted again before further preparation for gel analysis and spin-filter assisted digest for quantitative MS/MS.
(§2) The fibril-protein pellets were transferred to spin-filters (0.22 μm), washed twice in PBS (100 μL) and once in 1 M NaCl (100 μL). The fibrils and fibril-bound proteins were dissolved by one-hour incubation in 100 μL 6 M guanidinium chloride followed by elution from the spin-filter. The eluted proteins were loaded onto a 3 kDa MWCO filter unit for filter-assisted unfolding, reduction, alkylation, and trypsin digestion. In brief, samples were washed twice in 8 M urea, once in 8 M urea with 50 mM DTT, once in 8 M urea with 50 mM iodoaceteamide, and twice in 8 M Urea. The filter units were dried by centrifugation (14,000 g in 30 minutes) after every addition. Trypsin digestion was carried out with 0.25 μg sequencing grade trypsin from Sigma Aldrich in 50 mM ammonium bicarbonate overnight at 37 °C. The tryptic peptides were collected by centrifugation, acidified with TFA (0.1%) and micro-purified using POROS R2 column material (Applied Biosystems) packed in P200 pipette tips (Sarstedt).
(§3) LC-MS/MS analyses were performed on an EASY-nLC II system (Thermo Fisher Scientific) connected to a TripleTOF 5600+ mass spectrometer (Sciex) equipped with a NanoSpray III source (Sciex) and operated under Analyst TF 1.6.0 control.
(§4) The micro-purified tryptic peptides were dissolved in 0.1% formic acid, injected and trapped on an in-house packed trap column (2 cm × 100 μm I.D) with RP ReproSil-Pur C18-AQ 3 μm resin (Dr. Maisch GmbH). Peptides were eluted from the trap column and separated on a 15 cm analytical column (75 μm i.d.) packed in-house in a pulled emitter with RP ReproSil-Pur C18-AQ 3 μm resin (Dr. Maisch GmbH). Elution from the analytical column was performed with a linear gradient from 5% to 35% phase B (90% acetonitrile with 0.1% formic acid) over 20 min for protein identification and 50 min for quantitative analysis, respectively.
(§5) All samples were analysed three times, yielding nine MS/MS experiments for each fibril for both plasma and CSF. For the area-based extracted ion chromatogram (XIC) quantification, the acquisition method was set up as an information-dependent acquisition (IDA) experiment collecting up to 25 MS/MS spectra in each 1.6 sec cycle using an exclusion window of 6 sec.
(§6) XIC quantification was based on the average ion intensity of the three most abundant peptides for each protein. Only proteins quantified in at least four out of nine MS/MS experiments per fibril were included in the quantification. The total ion scores were visualized after grouping the proteins according to function (Figure S11).
(§7) For each MS/MS experiment, the ion intensities of the individual proteins were normalized to the total ion intensity of that MS/MS experiment to achieve a relative protein composition. The contribution of each protein was averaged over all nine MS/MS experiments (Tables 1 and 2).

[2] = target: αSN fibrils (Homo sapiens, UniProt P37840); format: binding; design: key to Identification status of CSF protein bound: αSN: *: Identified, but not quantified; —: Not identified in any of the samples; conditions: for Identification status of CSF protein bound: αSN: symbol cells
Experimental: as §1, §2, §3, §4, §5, §6, §7

[3] = target: T2, C-36 fibrils (Homo sapiens, UniProt P01009); format: binding; conditions: 4:1 w/w CSF protein:fibril
T2 construct: the 36 residue C-terminal fragment of α1-antitrypsin (C-36)
T2 sequence (P01009 383-418 limits assumed): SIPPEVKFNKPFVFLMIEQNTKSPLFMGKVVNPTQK
Experimental: as §1, §2, §3, §4, §5, §6, §7

[4] = test system: T3, Ab1 fibrils; format: binding, human; conditions: 4:1 w/w CSF protein:fibril
T3 construct: Synthetic amyloid β peptide 1–40 was purchased from Caslo Aps (Lyngby, Denmark); purchased Caslo Aps (Lyngby, Denmark); host or cells: synthetic peptide
Experimental: as §1, §2, §3, §4, §5, §6, §7

[5] = test system: T4, Ab2 fibrils; format: binding, human; conditions: 4:1 w/w CSF protein:fibril
T4 construct: Two structurally distinct fibrils of the Aβ(1–40) peptide associated with AD
Experimental: as §1, §2, §3, §4, §5, §6, §7

[6] = test system: T5, FAS4-AD aggregates; format: binding, human; design: key to Identification status of CSF protein bound: FAS4-AD: *: Identified, but not quantified; —: Not identified in any of the samples; conditions: symbol cells
T5 construct: aggregates of a mutated version of the FAS1-4 domain of TGFBIp
Experimental: as §1, §2, §3, §4, §5, §6, §7

T1 sequence (P01275 53-81 limits assumed): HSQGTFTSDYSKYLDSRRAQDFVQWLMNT

Molecule	Relative composition of CSF proteins bound: Glucagon [1]	Identification status of CSF protein bound: αSN [2]	Relative composition of CSF proteins bound: C-36 [3]	Relative composition of CSF proteins bound: Ab1 [4]	Relative composition of CSF proteins bound: Ab2 [5]	Identification status of CSF protein bound: FAS4-AD [6]	Relative composition of CSF proteins bound: αSN ([2]; 4:1 w/w CSF protein:fibril)
Vitamin D-binding protein: CSF protein bound to fibrils (protein, UniProt P02774 17-474, looked up) Vitamin D-binding protein: LERGRDYEKNKVCKEFSHLGKEDFTSLSLVLYSRKFPSGTFEQVSQLVKEVVSLTEACCAEGADPDCYDTRTSALSAKSCESNSPFPVHPGTAECCTKEGLERKLCMAALKHQPQEFPTYVEPTNDEICEAFRKDPKEYANQFMWEYSTNYGQAPLSLLVSYTKSYLSMVGSCCTSASPTVCFLKERLQLKHLSLLTTLSNRVCSQYAAYGEKKSRLSNLIKLAQKVPTADLEDVLPLAEDITNILSKCCESASEDCMAKELPEHTVKLCDNLSTKNSKFEDCCQEKTAMDVFVCTYFMPAAQLPELPDVELPTNKDVCDPGNTKVMDKYTFELSRRTHLPEVFLSKVLEPTLKSLGECCDVEDSTTCFNAKGPLLKKELSSFIDKGQELCADYSENTFTEYKKKLAERLKAKLPDATPTELAKLVNKHSDFASNCCSINSPPLYCDSEIDAELKNIL	0.8 ± 0.1 % of total protein	—	1.4 ± 0.8 % of total protein	0.7 ± 0.0 % of total protein	1.1 ± 0.0 % of total protein	—	
Mimecan: CSF protein bound to fibrils (protein, UniProt P20774 21-298, looked up) Mimecan: PPTQQDSRIIYDYGTDNFEESIFSQDYEDKYLDGKNIKEKETVIIPNEKSLQLQKDEAITPLPPKKENDEMPTCLLCVCLSGSVYCEEVDIDAVPPLPKESAYLYARFNKIKKLTAKDFADIPNLRRLDFTGNLIEDIEDGTFSKLSLLEELSLAENQLLKLPVLPPKLTLFNAKYNKIKSRGIKANAFKKLNNLTFLYLDHNALESVPLNLPESLRVIHLQFNNIASITDDTFCKANDTSYIRDRIEEIRLEGNPIVLGKHPNSFICLKRLPIGSYF	0.2 ± 0.1 % of total protein		0.4 ± 0.1 % of total protein	0.5 ± 0.0 % of total protein	0.6 ± 0.2 % of total protein	*	2.1 ± 0.9 % of total protein
SPARC-like protein 1: CSF protein bound to fibrils (protein, UniProt Q14515 17-664, looked up) SPARC-like protein 1: IPTNARLLSDHSKPTAETVAPDNTAIPSLRAEAEENEKETAVSTEDDSHHKAEKSSVLKSKEESHEQSAEQGKSSSQELGLKDQEDSDGHLSVNLEYAPTEGTLDIKEDMSEPQEKKLSENTDFLAPGVSSFTDSNQQESITKREENQEQPRNYSHHQLNRSSKHSQGLRDQGNQEQDPNISNGEEEEEKEPGEVGTHNDNQERKTELPREHANSKQEEDNTQSDDILEESDQPTQVSKMQEDEFDQGNQEQEDNSNAEMEEENASNVNKHIQETEWQSQEGKTGLEAISNHKETEEKTVSEALLMEPTDDGNTTPRNHGVDDDGDDDGDDGGTDGPRHSASDDYFIPSQAFLEAERAQSIAYHLKIEEQREKVHENENIGTTEPGEHQEAKKAENSSNEEETSSEGNMRVHAVDSCMSFQCKRGHICKADQQGKPHCVCQDPVTCPPTKPLDQVCGTDNQTYASSCHLFATKCRLEGTKKGHQLQLDYFGACKSIPTCTDFEVIQFPLRMRDWLKNILMQLYEANSEHAGYLNEKQRNKVKKIYLDEKRLLAGDHPIDLLLRDFKKNYHMYVYPVHWQFSELDQHPMDRVLTHSELAPLRASLVPMEHCITRFFEECDPNKDKHITLKEWGHCFGIKEEDIDENLLF	0.4 ± 0.1 % of total protein	*	0.8 ± 0.4 % of total protein	1.2 ± 0.1 % of total protein	1.4 ± 0.0 % of total protein	—	
EGF-containing fibulin-like extracellular matrix protein 1: CSF protein bound to fibrils (protein, UniProt Q12805 18-493, looked up) EGF-containing fibulin-like …: QDTEETITYTQCTDGYEWDPVRQQCKDIDECDIVPDACKGGMKCVNHYGGYLCLPKTAQIIVNNEQPQQETQPAEGTSGATTGVVAASSMATSGVLPGGGFVASAAAVAGPEMQTGRNNFVIRRNPADPQRIPSNPSHRIQCAAGYEQSEHNVCQDIDECTAGTHNCRADQVCINLRGSFACQCPPGYQKRGEQCVDIDECTIPPYCHQRCVNTPGSFYCQCSPGFQLAANNYTCVDINECDASNQCAQQCYNILGSFICQCNQGYELSSDRLNCEDIDECRTSSYLCQYQCVNEPGKFSCMCPQGYQVVRSRTCQDINECETTNECREDEMCWNYHGGFRCYPRNPCQDPYILTPENRCVCPVSNAMCRELPQSIVYKYMSIRSDRSVPSDIFQIQATTIYANTINTFRIKSGNENGEFYLRQTSPVSAMLVLVKSLSGPREHIVDLEMLTVSSIGTFRTSSVLRLTIIVGPFSF	0.2 ± 0.1 % of total protein	*	0.7 ± 0.1 % of total protein	0.6 ± 0.2 % of total protein	1.0 ± 0.3 % of total protein	—	
